Article PMC4015496 (Genes & Development, 2014)

T1: CTCFwt, full length, GST tag removed (human), P49711
T1 chain: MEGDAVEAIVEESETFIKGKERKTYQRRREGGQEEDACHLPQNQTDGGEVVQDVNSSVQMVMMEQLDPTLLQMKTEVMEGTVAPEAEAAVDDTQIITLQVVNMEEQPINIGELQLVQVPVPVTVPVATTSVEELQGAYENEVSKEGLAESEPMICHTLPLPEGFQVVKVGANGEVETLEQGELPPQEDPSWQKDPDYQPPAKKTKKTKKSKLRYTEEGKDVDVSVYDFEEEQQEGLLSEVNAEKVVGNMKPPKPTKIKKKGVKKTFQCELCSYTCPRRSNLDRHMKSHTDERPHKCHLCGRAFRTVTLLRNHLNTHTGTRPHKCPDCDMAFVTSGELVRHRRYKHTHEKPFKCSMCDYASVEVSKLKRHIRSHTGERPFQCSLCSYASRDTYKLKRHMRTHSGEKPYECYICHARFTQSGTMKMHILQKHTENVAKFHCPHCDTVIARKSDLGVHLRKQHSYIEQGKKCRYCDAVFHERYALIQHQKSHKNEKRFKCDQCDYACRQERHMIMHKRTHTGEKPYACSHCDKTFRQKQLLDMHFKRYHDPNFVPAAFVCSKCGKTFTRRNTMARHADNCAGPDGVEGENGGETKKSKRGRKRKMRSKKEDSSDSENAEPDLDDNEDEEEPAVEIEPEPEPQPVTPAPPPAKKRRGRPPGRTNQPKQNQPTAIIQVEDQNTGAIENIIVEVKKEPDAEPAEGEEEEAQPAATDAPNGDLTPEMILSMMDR


Experiments:
SEC = molecular target: the molecule itself; experiment: SEC
[1] = molecular target: T1, CTCFwt, full length, GST tag removed …; experiment: SEC; settings: remark: other sources report otherwise

Row | stoichiometry N [1] | Binder | binding result (SEC)
1 |  | RBR fragment of CTCF (purified, used in gel filtration) (domain or fragment, human, UniProt P49711 520-727, looked up) EKPYACSHCDKTFRQKQLLDMHFKRYHDPNFVPAAFVCSKCGKTFTRRNTMARHADNCAGPDGVEGENGGETKKSKRGRKRKMRSKKEDSSDSENAEPDLDDNEDEEEPAVEIEPEPEPQPVTPAPPPAKKRRGRPPGRTNQPKQNQPTAIIQVEDQNTGAIENIIVEVKKEPDAEPAEGEEEEAQPAATDAPNGDLTPEMILSMMDR | binds
2 | 3 | CTCFwt, full length, GST tag removed, P49711 1-727 (natural protein) MEGDAVEAIVEESETFIKGKERKTYQRRREGGQEEDACHLPQNQTDGGEVVQDVNSSVQMVMMEQLDPTLLQMKTEVMEGTVAPEAEAAVDDTQIITLQVVNMEEQPINIGELQLVQVPVPVTVPVATTSVEELQGAYENEVSKEGLAESEPMICHTLPLPEGFQVVKVGANGEVETLEQGELPPQEDPSWQKDPDYQPPAKKTKKTKKSKLRYTEEGKDVDVSVYDFEEEQQEGLLSEVNAEKVVGNMKPPKPTKIKKKGVKKTFQCELCSYTCPRRSNLDRHMKSHTDERPHKCHLCGRAFRTVTLLRNHLNTHTGTRPHKCPDCDMAFVTSGELVRHRRYKHTHEKPFKCSMCDYASVEVSKLKRHIRSHTGERPFQCSLCSYASRDTYKLKRHMRTHSGEKPYECYICHARFTQSGTMKMHILQKHTENVAKFHCPHCDTVIARKSDLGVHLRKQHSYIEQGKKCRYCDAVFHERYALIQHQKSHKNEKRFKCDQCDYACRQERHMIMHKRTHTGEKPYACSHCDKTFRQKQLLDMHFKRYHDPNFVPAAFVCSKCGKTFTRRNTMARHADNCAGPDGVEGENGGETKKSKRGRKRKMRSKKEDSSDSENAEPDLDDNEDEEEPAVEIEPEPEPQPVTPAPPPAKKRRGRPPGRTNQPKQNQPTAIIQVEDQNTGAIENIIVEVKKEPDAEPAEGEEEEAQPAATDAPNGDLTPEMILSMMDR | 
